Assays:
4H3628-bA = target: T1, 4H3628-bA; assay: two-hybrid library CCNG1;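 further: natural log of median RNA to DNA barcode read ratio; higher means stronger binding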
T1 chain: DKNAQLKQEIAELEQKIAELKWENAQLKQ

4H3855-bN = target: T2, 4H3855-bN; assay: two-hybrid library CCNG1;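 further: natural log of median RNA to DNA barcode read ratio; higher means stronger binding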
T2 chain: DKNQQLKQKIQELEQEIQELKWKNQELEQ

4H3782-bN = target: T3, 4H3782-bN; assay: two-hybrid library CCNG1;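 further: natural log of median RNA to DNA barcode read ratio; higher means stronger binding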
T3 chain: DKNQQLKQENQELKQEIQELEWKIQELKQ

4H3112-bN = target: T4, 4H3112-bN; assay: two-hybrid library CCNG1;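 further: natural log of median RNA to DNA barcode read ratio; higher means stronger binding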
T4 chain: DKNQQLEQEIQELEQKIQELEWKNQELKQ

4H3354-bN = target: T5, 4H3354-bN; assay: two-hybrid library CCNG1
T5 chain: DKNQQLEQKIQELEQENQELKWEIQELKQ

4H908-bN = target: T6, 4H908-bN; assay: two-hybrid library CCNG1
T6 chain: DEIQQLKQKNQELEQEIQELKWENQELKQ

4H883-bN = target: T7, 4H883-bN; assay: two-hybrid library CCNG1
T7 chain: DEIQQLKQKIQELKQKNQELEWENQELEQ

4H967-bN = target: T8, 4H967-bN; assay: two-hybrid library CCNG1
T8 chain: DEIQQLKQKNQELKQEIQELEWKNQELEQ

4H331-bN = target: T9, 4H331-bN; assay: two-hybrid library CCNG1
T9 chain: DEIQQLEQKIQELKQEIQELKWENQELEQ

4H918-bN = target: T10, 4H918-bN; assay: two-hybrid library CCNG1
T10 chain: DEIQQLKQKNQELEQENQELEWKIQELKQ

4H568-bN = target: T11, 4H568-bN; assay: two-hybrid library CCNG1
T11 chain: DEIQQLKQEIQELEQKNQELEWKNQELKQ

4H754-bN = target: T12, 4H754-bN; assay: two-hybrid library CCNG1
T12 chain: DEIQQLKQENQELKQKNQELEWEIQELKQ

4H338-bN = target: T13, 4H338-bN; assay: two-hybrid library CCNG1
T13 chain: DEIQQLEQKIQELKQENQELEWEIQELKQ

4H717-bN = target: T14, 4H717-bN; assay: two-hybrid library CCNG1
T14 chain: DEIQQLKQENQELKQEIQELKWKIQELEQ

4H2667-bN = target: T15, 4H2667-bN; assay: two-hybrid library CCNG1
T15 chain: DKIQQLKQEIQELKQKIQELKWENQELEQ

4H953-bN = target: T16, 4H953-bN; assay: two-hybrid library CCNG1
T16 chain: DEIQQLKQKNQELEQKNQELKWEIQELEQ

4H2618-bN = target: T17, 4H2618-bN; assay: two-hybrid library CCNG1
T17 chain: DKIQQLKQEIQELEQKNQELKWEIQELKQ

4H3427-bN = target: T18, 4H3427-bN; assay: two-hybrid library CCNG1
T18 chain: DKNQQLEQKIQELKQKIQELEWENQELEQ

4H607-bN = target: T19, 4H607-bN; assay: two-hybrid library CCNG1
T19 chain: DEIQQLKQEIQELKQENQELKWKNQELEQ

4H4001-bN = target: T20, 4H4001-bN; assay: two-hybrid library CCNG1
T20 chain: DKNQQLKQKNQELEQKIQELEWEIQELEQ

4H797-bN = target: T21, 4H797-bN; assay: two-hybrid library CCNG1
T21 chain: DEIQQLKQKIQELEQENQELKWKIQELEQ

4H72-bN = target: T22, 4H72-bN; assay: two-hybrid library CCNG1
T22 chain: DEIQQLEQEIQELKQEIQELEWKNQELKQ

4H687-bN = target: T23, 4H687-bN; assay: two-hybrid library CCNG1
T23 chain: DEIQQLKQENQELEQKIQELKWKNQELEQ

4H2729-bN = target: T24, 4H2729-bN; assay: two-hybrid library CCNG1
T24 chain: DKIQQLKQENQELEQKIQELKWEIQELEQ

4H454-bN = target: T25, 4H454-bN; assay: two-hybrid library CCNG1
T25 chain: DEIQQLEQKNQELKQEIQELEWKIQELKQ

4H3185-bN = target: T26, 4H3185-bN; assay: two-hybrid library CCNG1
T26 chain: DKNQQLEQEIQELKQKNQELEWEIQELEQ

APC9141-AA = target: T27, APC9141-AA; assay: two-hybrid library CCmax; settings: mean of both orientations
T27 chain: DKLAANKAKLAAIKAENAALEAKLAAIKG

APC3323-AA = target: T28, APC3323-AA; assay: two-hybrid library CCmax; settings: mean of both orientations
T28 chain: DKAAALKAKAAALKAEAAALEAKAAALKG

APC3881-AA = target: T29, APC3881-AA; assay: two-hybrid library CCmax; settings: mean of both orientations
T29 chain: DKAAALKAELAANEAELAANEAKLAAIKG

APC4336-AA = target: T30, APC4336-AA; assay: two-hybrid library CCmax; settings: mean of both orientations
T30 chain: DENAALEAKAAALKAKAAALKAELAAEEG

APC2543-AA = target: T31, APC2543-AA; assay: two-hybrid library CCmax; settings: mean of both orientations
T31 chain: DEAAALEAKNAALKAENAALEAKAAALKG

APC8516-AA = target: T32, APC8516-AA; assay: two-hybrid library CCmax; settings: mean of both orientations
T32 chain: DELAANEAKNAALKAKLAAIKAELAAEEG

APC5009-AA = target: T33, APC5009-AA; assay: two-hybrid library CCmax; settings: mean of both orientations
T33 chain: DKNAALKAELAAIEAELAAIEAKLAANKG

APC3265-AA = target: T34, APC3265-AA; assay: two-hybrid library CCmax; settings: mean of both orientations
T34 chain: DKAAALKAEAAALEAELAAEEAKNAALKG

APC2724-AA = target: T35, APC2724-AA; assay: two-hybrid library CCmax; settings: mean of both orientations
T35 chain: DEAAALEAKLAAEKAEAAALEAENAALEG

APC9182-AA = target: T36, APC9182-AA; assay: two-hybrid library CCmax; settings: mean of both orientations
T36 chain: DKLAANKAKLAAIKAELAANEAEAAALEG

APC5531-AA = target: T37, APC5531-AA; assay: two-hybrid library CCmax; settings: mean of both orientations
T37 chain: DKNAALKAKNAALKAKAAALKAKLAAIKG

APC6088-AA = target: T38, APC6088-AA; assay: two-hybrid library CCmax; settings: mean of both orientations
T38 chain: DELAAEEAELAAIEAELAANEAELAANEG

APC542-AA = target: T39, APC542-AA; assay: two-hybrid library CCmax; settings: mean of both orientations
T39 chain: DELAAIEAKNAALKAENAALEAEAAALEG

APC8401-AA = target: T40, APC8401-AA; assay: two-hybrid library CCmax; settings: mean of both orientations
T40 chain: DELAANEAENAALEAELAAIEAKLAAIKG

APC7524-AA = target: T41, APC7524-AA; assay: two-hybrid library CCmax; settings: mean of both orientations
T41 chain: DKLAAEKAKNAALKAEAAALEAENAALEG

APC2811-AA = target: T42, APC2811-AA; assay: two-hybrid library CCmax; settings: mean of both orientations
T42 chain: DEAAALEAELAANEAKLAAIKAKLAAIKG

APC9806-AA = target: T43, APC9806-AA; assay: two-hybrid library CCmax; settings: mean of both orientations
T43 chain: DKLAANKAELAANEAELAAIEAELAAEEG

APC2375-AA = target: T44, APC2375-AA; assay: two-hybrid library CCmax
T44 chain: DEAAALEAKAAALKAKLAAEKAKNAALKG

APC9291-AA = target: T45, APC9291-AA; assay: two-hybrid library CCmax; settings: mean of both orientations
T45 chain: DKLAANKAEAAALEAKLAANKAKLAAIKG

APC3354-AA = target: T46, APC3354-AA; assay: two-hybrid library CCmax; settings: mean of both orientations
T46 chain: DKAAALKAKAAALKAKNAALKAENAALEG

APC2474-AA = target: T47, APC2474-AA; assay: two-hybrid library CCmax; settings: mean of both orientations
T47 chain: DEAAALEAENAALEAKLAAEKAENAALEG

APC2556-AA = target: T48, APC2556-AA; assay: two-hybrid library CCmax; settings: mean of both orientations
T48 chain: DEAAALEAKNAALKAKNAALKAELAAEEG

APC2981-AA = target: T49, APC2981-AA; assay: two-hybrid library CCmax; settings: mean of both orientations
T49 chain: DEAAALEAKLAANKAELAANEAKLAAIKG

APC4100-AA = target: T50, APC4100-AA; assay: two-hybrid library CCmax; settings: mean of both orientations
T50 chain: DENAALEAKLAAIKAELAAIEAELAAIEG

DKIQQLKQEIQELEQKNQELKWEIQELKQ [4H2618-bN]
interaction score (4H3628-bA): 0.00803
interaction score (4H3855-bN): -0.781
interaction score (4H3782-bN): -0.594
interaction score (4H3112-bN): -0.924
interaction score (4H3354-bN): -0.374
interaction score (4H908-bN): -1.09
interaction score (4H883-bN): 0.595
interaction score (4H967-bN): -1.39
interaction score (4H331-bN): -0.0801
interaction score (4H918-bN): 0.558
interaction score (4H568-bN): -1.88
interaction score (4H754-bN): -0.67
interaction score (4H338-bN): 0.959
interaction score (4H717-bN): -0.442
interaction score (4H2667-bN): -0.229
interaction score (4H953-bN): -1.12
interaction score (4H2618-bN): 0.45
interaction score (4H3427-bN): 0.0822
interaction score (4H607-bN): -0.0391
interaction score (4H4001-bN): -0.538
interaction score (4H797-bN): -0.249
interaction score (4H72-bN): -0.128
interaction score (4H687-bN): -0.758
interaction score (4H2729-bN): 1.51
interaction score (4H454-bN): 0.067
interaction score (4H3185-bN): 0.0545

DEAAALEAKAAALKAKLAAEKAKNAALKG [APC2375-AA]
interaction score (APC9141-AA): -1.6
interaction score (APC3323-AA): -1.82
interaction score (APC3881-AA): -1.74
interaction score (APC4336-AA): -1.65
interaction score (APC2543-AA): -1.57
interaction score (APC8516-AA): -1.58
interaction score (APC5009-AA): -0.913
interaction score (APC3265-AA): -1.44
interaction score (APC2724-AA): -1.62
interaction score (APC9182-AA): -1.83
interaction score (APC5531-AA): -1.77
interaction score (APC6088-AA): -1.06
interaction score (APC542-AA): -1.83
interaction score (APC8401-AA): -0.731
interaction score (APC7524-AA): -1.49
interaction score (APC2811-AA): -1.74
interaction score (APC9806-AA): -1.72
interaction score (APC2375-AA): -1.68
interaction score (APC9291-AA): -1.88
interaction score (APC3354-AA): -1.67
interaction score (APC2474-AA): -1.59
interaction score (APC2556-AA): -1.42
interaction score (APC2981-AA): -1.45
interaction score (APC4100-AA): -1.47

From publication PMC10397247
